Columns and labels:
[1] = as reported elsewhere; cited from earlier work
[2] = test system: patients with hypercholesterolemia at high CV risk not adequately controlled with atorvastatin (20 mg or 40 mg); assay: Example 2: anti-mAb316P anti-drug antibody (ADA) status; format: in vivo, human
[3] = test system: patients with hypercholesterolemia at high CV risk not adequately controlled with rosuvastatin (10 mg or 20 mg); conditions: in vivo
[4] = test system: patients with hypercholesterolemia at high CV risk not adequately controlled with atorvastatin (20 mg or 40 mg); assay: Example 2: safety, treatment-emergent adverse events in pooled treatment groups
Protocol: For the pooled data, three treatment groups are formed by combining treatment arms regardless of the atorvastatin doses as follows:
(2) EZE treatment group: pooling EZE+atorva 20 mg arm and EZE+atorva 40 mg arm;

[5] = of the five ADA positive patients
[6] = Safety Population, pooled treatment groups

CC(C)c1nc(N(C)S(C)(=O)=O)nc(-c2ccc(F)cc2)c1/C=C/[C@@H](O)C[C@@H](O)CC(=O)O [rosuvastatin, reference compound]
reduction in LDL-C levels when switching from atorvastatin 40 mg per day to rosuvastatin 40 mg per day [1]: ~8%

mAb316P: human anti-PCSK9 antibody; heavy chain SEQ ID NO:5, light chain SEQ ID NO:9
Treatment-emergent ADA positive responses ([2]; 5 of 99 patients in the pooled mAb316P add-on group): 5.1%
overall immunogenicity ([2]; in vivo): immunogenicity was low
positive mAb316P-neutralizing antibody status ([2]; of patients with positive ADA status): One and one
treatment-emergent ADA: persistent responses [2, 5]: three
treatment-emergent ADA: transient response [2, 5]: one
2 consecutive calculated LDL-C measurements below 25 mg/dL [3]: 13 (12.6%) patients (%)
General Allergic TEAEs [3]: 11 (10.7%) patients (%)
SOC General disorders and administration site conditions [3]: 15 (14.6%) patients (%)
SOC Immune system disorders [3]: 1 (1.0%) patients (%)
SOC Psychiatric disorders [3]: 5 (4.9%) patients (%)
SOC Respiratory, thoracic and mediastinal disorders [3]: 7 (6.8%) patients (%)
SOC Skin and subcutaneous tissue disorders [3]: 8 (7.8%) patients (%)
TEAE accidental overdose [3]: 3 patients
TEAE arthralgia [3]: 4 patients
TEAE constipation [3]: 2 patients
TEAE diarrhea [3]: 2 patients
TEAE dizziness [3]: 3 patients
TEAE fatigue [3]: 3 patients
TEAE hypokalaemia [3]: 2 patients
TEAE laceration [3]: 3 patients
TEAE local swelling [3]: 2 patients
TEAE myalgia [3]: 4 patients
TEAE nasopharyngitis [3]: 4 patients
TEAE nausea [3]: 3 patients
TEAE pain in extremity [3]: 2 patients
TEAE sciatica [3]: 2 patients
TEAEs [3]: 58 (56.3%) patients (%)
Treatment-emergent SAEs [3]: 6 (5.8%) patients (%)
Treatment-emergent cardiovascular events adjudicated positively [3]: Zero
Treatment-emergent neurocognitive disorders [3]: 1 (1.0%) patients (%)
Treatment-emergent neurologic disorders [3]: 2 (1.9%) patients (%)
discontinued study treatment early due to a treatment emergent adverse event [3]: 5 (4.9%) patients (%)
tolerability [3]: well tolerated
General Allergic TEAEs (SMQ Hypersensitivity) [4, 6]: 2 (1.9%) patients (%)
SOC Injury, poisoning and procedural complications [4, 6]: 15 (14.4%) patients (%)
SOC Musculoskeletal and connective tissue disorders [4, 6]: 24 (23.1%) patients (%)
SOC Neoplasms benign, malignant and unspecified (incl cysts and polyps) [4, 6]: 3 (2.9%) patients (%)
SOC Nervous system disorders [4, 6]: 10 (9.6%) patients (%)
TEAEs [4, 6]: 68 (65.4%) patients (%)
Treatment-emergent SAEs [4, 6]: 4 (3.8%) patients (%)
Treatment-emergent injection site reactions (ISRs) [4, 6]: 3 (2.9%) patients (%)
Treatment-emergent neurologic disorders [4, 6]: 3 (2.9%) patients (%)
discontinued study treatment early due to a treatment emergent adverse event (TEAE) [4, 6]: 7 (6.7%) patients (%)
Treatment-emergent cardiovascular events adjudicated positively ([4]; Safety Population, pooled treatment groups, ischemia driven coronary revascularization procedure): 2 (1.9%) patients (%)
TEAE Back pain ([4]; pooled mAb316P group): 7 patients
TEAE Headache ([4]; pooled mAb316P group): 4 patients
TEAE Hypertension ([4]; pooled mAb316P group): 5 patients
TEAE Muscle spasms ([4]; pooled mAb316P group): 4 patients
TEAE influenza ([4]; pooled mAb316P group): 3 patients
TEAE nasopharyngitis ([4]; pooled mAb316P group): 5 patients
TEAE upper respiratory tract infection ([4]; pooled mAb316P group): 5 patients
TEAE urinary tract infection ([4]; pooled mAb316P group): 3 patients

— US20150231236A1, “METHODS FOR TREATING PATIENTS WITH HYPERCHOLESTEROLEMIA THAT IS NOT ADEQUATELY CONTROLLED BY MODERATE-DOSE STATIN THERAPY” (Regeneron Pharmaceuticals, Inc., priority 2014, published 2015)
